Here are results for 94 variants from the supplement of paper PMC10567573.

B1: ZNF263 (parent)
chain: FGGNPRFLSLHRAHLGEEAHKCLE
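Also: lentivirally expressed fusions sorted by FACS into six bins by GFP to DsRed ratio, PSI derived from sequencing read proportions per bin multiplied by bin number.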

In this data set the parent is B1. Put plainly: protein stability index of a GFP-peptide fusion (GPS, HEK-293T) (PSI 1-6); higher = more stable. The settings on record: c terminus: a fixed tail appended.
Regarding WGGNPRFLSLHRAHLGEEAHKCLE [F1W], the protein stability index came out at 1.99.
Take AGGNPRFLSLHRAHLGEEAHKCLE [F1A]: the protein stability index is 3.45.
For EGGNPRFLSLHRAHLGEEAHKCLE [F1E] the value was 3.61.
Turning to GGGNPRFLSLHRAHLGEEAHKCLE [F1G], the protein stability index came out at 3.98.
With YGGNPRFLSLHRAHLGEEAHKCLE [F1Y], the protein stability index stood at 1.47.
Take PGGNPRFLSLHRAHLGEEAHKCLE [F1P]: the protein stability index was found to be 3.7.
Regarding TGGNPRFLSLHRAHLGEEAHKCLE [F1T], the protein stability index came to 3.48.
As to QGGNPRFLSLHRAHLGEEAHKCLE [F1Q], the protein stability index worked out at 3.38.
On to KGGNPRFLSLHRAHLGEEAHKCLE [F1K], for which the protein stability index amounted to 2.95.
With NGGNPRFLSLHRAHLGEEAHKCLE [F1N], the protein stability index stood at 3.94.
Take MGGNPRFLSLHRAHLGEEAHKCLE [F1M]: the protein stability index is 3.81.
For SGGNPRFLSLHRAHLGEEAHKCLE [F1S] the value was 3.69; for IGGNPRFLSLHRAHLGEEAHKCLE [F1I], 3.51.
Take RGGNPRFLSLHRAHLGEEAHKCLE [F1R]: the protein stability index was determined as 3.69.
On to VGGNPRFLSLHRAHLGEEAHKCLE [F1V], for which the protein stability index turned out to be 3.87.
With CGGNPRFLSLHRAHLGEEAHKCLE [F1C], the protein stability index is 2.63.
As to HGGNPRFLSLHRAHLGEEAHKCLE [F1H], the protein stability index is 3.19.
In the case of LGGNPRFLSLHRAHLGEEAHKCLE [F1L], the protein stability index was determined as 3.18.
As to DGGNPRFLSLHRAHLGEEAHKCLE [F1D], the protein stability index came out at 4.17.
Regarding FGMNPRFLSLHRAHLGEEAHKCLE [G3M], the protein stability index came to 2.05.
On to FGDNPRFLSLHRAHLGEEAHKCLE [G3D], for which the protein stability index was 3.36.
Consider FGPNPRFLSLHRAHLGEEAHKCLE [G3P], for which the protein stability index came to 2.13.
Regarding FGWNPRFLSLHRAHLGEEAHKCLE [G3W], the protein stability index stood at 2.14.
Take FGINPRFLSLHRAHLGEEAHKCLE [G3I]: the protein stability index came to 3.04.
For the variant FGRNPRFLSLHRAHLGEEAHKCLE [G3R], the protein stability index stood at 2.48.
For the variant FGNNPRFLSLHRAHLGEEAHKCLE [G3N], the protein stability index was found to be 2.24.
For FGSNPRFLSLHRAHLGEEAHKCLE [G3S] the value was 2.25.
For FGFNPRFLSLHRAHLGEEAHKCLE [G3F] the value was 2.69; for FGENPRFLSLHRAHLGEEAHKCLE [G3E], 2.16.
For the variant FGANPRFLSLHRAHLGEEAHKCLE [G3A], the protein stability index stood at 1.91.
On to FGQNPRFLSLHRAHLGEEAHKCLE [G3Q], for which the protein stability index came out at 1.53.
FGHNPRFLSLHRAHLGEEAHKCLE [G3H]: the protein stability index was 2.51.
As for FGKNPRFLSLHRAHLGEEAHKCLE [G3K], the protein stability index amounted to 2.36.
For FGTNPRFLSLHRAHLGEEAHKCLE [G3T] the value was 2.17.
On to FGLNPRFLSLHRAHLGEEAHKCLE [G3L], for which the protein stability index was found to be 2.5.
As to FGYNPRFLSLHRAHLGEEAHKCLE [G3Y], the protein stability index stood at 1.78.
As for FGCNPRFLSLHRAHLGEEAHKCLE [G3C], the protein stability index came out at 2.
On to FGVNPRFLSLHRAHLGEEAHKCLE [G3V], for which the protein stability index was found to be 2.83.
For FGGNHRFLSLHRAHLGEEAHKCLE [P5H] the value was 2.17; for FGGNQRFLSLHRAHLGEEAHKCLE [P5Q], 2.2.
For FGGNYRFLSLHRAHLGEEAHKCLE [P5Y] the value was 1.57; for FGGNERFLSLHRAHLGEEAHKCLE [P5E], 2.19; for FGGNMRFLSLHRAHLGEEAHKCLE [P5M], 1.96.
Regarding FGGNNRFLSLHRAHLGEEAHKCLE [P5N], the protein stability index was found to be 3.16.
FGGNLRFLSLHRAHLGEEAHKCLE [P5L]: the protein stability index was found to be 1.69.
Regarding FGGNRRFLSLHRAHLGEEAHKCLE [P5R], the protein stability index stood at 2.01.
For FGGNSRFLSLHRAHLGEEAHKCLE [P5S] the value was 1.93; for FGGNCRFLSLHRAHLGEEAHKCLE [P5C], 1.49.
For FGGNGRFLSLHRAHLGEEAHKCLE [P5G] the value was 1.64.
On to FGGNTRFLSLHRAHLGEEAHKCLE [P5T], for which the protein stability index stood at 2.17.
FGGNARFLSLHRAHLGEEAHKCLE [P5A]: the protein stability index is 2.03.
Consider FGGNWRFLSLHRAHLGEEAHKCLE [P5W], for which the protein stability index was 1.96.
Turning to FGGNKRFLSLHRAHLGEEAHKCLE [P5K], the protein stability index worked out at 1.56.
Consider FGGNDRFLSLHRAHLGEEAHKCLE [P5D], for which the protein stability index is 1.35.
For FGGNVRFLSLHRAHLGEEAHKCLE [P5V] the value was 1.96; for FGGNFRFLSLHRAHLGEEAHKCLE [P5F], 1.62; for FGGNIRFLSLHRAHLGEEAHKCLE [P5I], 1.52.
With FGGEPRFLSLHRAHLGEEAHKCLE [N4E], the protein stability index is 2.26.
FGGSPRFLSLHRAHLGEEAHKCLE [N4S]: the protein stability index was found to be 1.14.
For FGGLPRFLSLHRAHLGEEAHKCLE [N4L] the value was 2.32.
FGGGPRFLSLHRAHLGEEAHKCLE [N4G]: the protein stability index was found to be 1.56.
For FGGRPRFLSLHRAHLGEEAHKCLE [N4R] the value was 2.46.
Turning to FGGKPRFLSLHRAHLGEEAHKCLE [N4K], the protein stability index was determined as 2.31.
As to FGGDPRFLSLHRAHLGEEAHKCLE [N4D], the protein stability index is 2.13.
For FGGIPRFLSLHRAHLGEEAHKCLE [N4I] the value was 2.24; for FGGYPRFLSLHRAHLGEEAHKCLE [N4Y], 1.53.
Turning to FGGPPRFLSLHRAHLGEEAHKCLE [N4P], the protein stability index is 2.61.
For the variant FGGHPRFLSLHRAHLGEEAHKCLE [N4H], the protein stability index was 1.97.
On to FGGMPRFLSLHRAHLGEEAHKCLE [N4M], for which the protein stability index came to 1.03.
Consider FGGTPRFLSLHRAHLGEEAHKCLE [N4T], for which the protein stability index came out at 1.66.
Take FGGWPRFLSLHRAHLGEEAHKCLE [N4W]: the protein stability index is 2.37.
FGGVPRFLSLHRAHLGEEAHKCLE [N4V]: the protein stability index is 2.44.
For FGGCPRFLSLHRAHLGEEAHKCLE [N4C] the value was 1.62; for FGGFPRFLSLHRAHLGEEAHKCLE [N4F], 2.15.
Regarding FGGQPRFLSLHRAHLGEEAHKCLE [N4Q], the protein stability index was found to be 1.51.
For the variant FGGAPRFLSLHRAHLGEEAHKCLE [N4A], the protein stability index stood at 2.87.
For FIGNPRFLSLHRAHLGEEAHKCLE [G2I] the value was 1.64.
Turning to FCGNPRFLSLHRAHLGEEAHKCLE [G2C], the protein stability index amounted to 1.61.
For FDGNPRFLSLHRAHLGEEAHKCLE [G2D] the value was 3.68; for FFGNPRFLSLHRAHLGEEAHKCLE [G2F], 2.55; for FRGNPRFLSLHRAHLGEEAHKCLE [G2R], 3.66.
Take FTGNPRFLSLHRAHLGEEAHKCLE [G2T]: the protein stability index amounted to 3.64.
For FKGNPRFLSLHRAHLGEEAHKCLE [G2K] the value was 2.87; for FSGNPRFLSLHRAHLGEEAHKCLE [G2S], 1.74; for FWGNPRFLSLHRAHLGEEAHKCLE [G2W], 2.24.
On to FEGNPRFLSLHRAHLGEEAHKCLE [G2E], for which the protein stability index was 3.12.
On to FMGNPRFLSLHRAHLGEEAHKCLE [G2M], for which the protein stability index stood at 2.35.
As for FAGNPRFLSLHRAHLGEEAHKCLE [G2A], the protein stability index was 1.59.
Turning to FQGNPRFLSLHRAHLGEEAHKCLE [G2Q], the protein stability index turned out to be 1.38.
FNGNPRFLSLHRAHLGEEAHKCLE [G2N]: the protein stability index amounted to 2.22.
Take FPGNPRFLSLHRAHLGEEAHKCLE [G2P]: the protein stability index amounted to 2.13.
Turning to FYGNPRFLSLHRAHLGEEAHKCLE [G2Y], the protein stability index was determined as 2.32.
As to FHGNPRFLSLHRAHLGEEAHKCLE [G2H], the protein stability index was 1.79.
For the variant FLGNPRFLSLHRAHLGEEAHKCLE [G2L], the protein stability index is 2.25.
